Columns and labels:
MS2 coat protein [1] = assay: apparent KD of MS2 coat protein, switch OFF state (with FMN for OFF switches, without FMN for ON switches); designed switch direction (-1 OFF switch, 1 ON switch): -1; higher = weaker reporter binding; conditions: FMN input: 0 or 200 uM; Eterna round: R93 (includes R88 designs)
In short: (§1)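 The buffer was 100 mM Tris-HCl pH 7.5 with 80 mM KCl and 4 mM MgCl2, used without or with constant ligand. In it, RNA switches transcribed on-chip from Illumina sequencing clusters were titrated with SNAP-549-labelled MS2 coat protein in twofold steps from 0.7 or 1.5 nM to 3 µM. Apparent KD for each design is the median of its normalised cluster binding-curve fits.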

MS2 coat protein [2] = assay: apparent KD of MS2 coat protein, switch ON state; designed switch direction (-1 OFF switch, 1 ON switch): -1; higher = weaker reporter binding; conditions: FMN input: 0 or 200 uM; Eterna round: R93 (includes R88 designs)
In short: as §1

AAAAAACAUGAGGAUCACCCAUGUAAGGAUAUGUAAAACCCAUAUAAAAAGGGAAAAAACAGAAGGUGCAAAAA [wbt round 1 mod 6]
apparent KD of MS2 coat protein (MS2 coat protein [1]): 30.4 nM
apparent KD of MS2 coat protein (MS2 coat protein [2]): 35.1 nM

AAAAAGUUAGGAUAUACAUGAGGAUCACCCAUGUGCACAUAUGGAGAAUAUGGUAGUAGUAGAAGGGACAAAAA [EX2 Malc#16]
apparent KD of MS2 coat protein (MS2 coat protein [1]): 33.3 nM
apparent KD of MS2 coat protein (MS2 coat protein [2]): 30.3 nM

AAAAGGUCAGGAUAUGCCCACCUGGUGGAAAAACCAGGUGGGCAGAAGGGACAUGAGGAUCACCCAUGUAAAAA [Excls4-Ii]
apparent KD of MS2 coat protein (MS2 coat protein [1]): 78.2 nM
apparent KD of MS2 coat protein (MS2 coat protein [2]): 53.1 nM

AACAUGUCAGGAUAUGUAGUAAAAAGUGAUCCUCAUAAACUACAGAAGGGACAUGAGGAUCACCCAUGUAAAAA [Ex4: 930]
apparent KD of MS2 coat protein (MS2 coat protein [1]): 21.3 nM
apparent KD of MS2 coat protein (MS2 coat protein [2]): 27.9 nM

AAGAACUGAGGAUAUACUUUGGGAAAAGAAAAGAUGAUGUUACAUGAGGAUCACCCAUGUAGAAGGCAGAAGAA [Mat - Exclusion 2 - Mod - D153]
apparent KD of MS2 coat protein (MS2 coat protein [1]): 37 nM
apparent KD of MS2 coat protein (MS2 coat protein [2]): 27 nM

UAAAAUAAAGGAUAUAAAACAGAGGAUAUACAUAAAUAAAAACAUGAGGAUCACCCAUGUAGAAGGCUGAAAAU [Meechl Ex2 R2 m1]
apparent KD of MS2 coat protein (MS2 coat protein [1]): 28.4 nM
apparent KD of MS2 coat protein (MS2 coat protein [2]): 29 nM

AAAAAGGCAGGAUAUGCAUACACACAAAAAAAAAAACUGGGACAUGAGGAUCACCCAUGUAGAAGGGCCAAAAA [Dora Explored 8 - Jieux - Exclusion 2]
apparent KD of MS2 coat protein (MS2 coat protein [1]): 54 nM
apparent KD of MS2 coat protein (MS2 coat protein [2]): 151 nM

AAAAGACAUGAGGAUCACCCAUGUCAGGAUAUGACUUGAAAAAUAAAAUAAAAACAUGUCAGAAGGGACAUGAA [Design 46: Sub-opt DB]
apparent KD of MS2 coat protein (MS2 coat protein [1]): 25.2 nM
apparent KD of MS2 coat protein (MS2 coat protein [2]): 28.5 nM

GAAGAACAUGAGGAUCACCCAUGUCAGGAUAUGCGCAAGGGAAUAAUAACUUGCGGAAGCAGAAGGGACAAGAA [Ex 1 May 50]
apparent KD of MS2 coat protein (MS2 coat protein [1]): 35.9 nM
apparent KD of MS2 coat protein (MS2 coat protein [2]): 18.9 nM

AGGAAACAUGAGGAUCACCCAUGUAAGGAUAUCAGAAAGAAAAGAAAAGAAAGAAGAAUGAGAAGGUACAAGAA [Horus Bird]
apparent KD of MS2 coat protein (MS2 coat protein [1]): 34 nM
apparent KD of MS2 coat protein (MS2 coat protein [2]): 29.1 nM

AAGAAGCGAGGAUAUACAUGAGGAUCACCCAUGUAAAAGAAAGAGGGAAAAGAGAAAAGUAGAAGGCGCAAGAA [Philip III Arrhidaeus]
apparent KD of MS2 coat protein (MS2 coat protein [1]): 123 nM
apparent KD of MS2 coat protein (MS2 coat protein [2]): 84.2 nM

AAUAAGUGAGGAUAUCGAAGACUGUCGAAAAGACAGUCGAACGAGAAGGCACAUGAGGAUCACCCAUGUGAGGG [Mat - Exaclusion 4 - Eli mod - D69]
apparent KD of MS2 coat protein (MS2 coat protein [1]): 107 nM
apparent KD of MS2 coat protein (MS2 coat protein [2]): 130 nM

AAAAAGCUAGGAUAUACAUGAGGAUCACCCAUGUAAAAAAAAAAAAAGGGAAAAAAAAGUAGAAGGAGCAAAAA [Merankhre Mentuhotep VI]
apparent KD of MS2 coat protein (MS2 coat protein [1]): 26 nM
apparent KD of MS2 coat protein (MS2 coat protein [2]): 18.4 nM

AAGAAGUCAGGAUAUACAUGAAAGAAAGAAAAGAAAAGAAAACAUGAGGAUCACCCAUGUAGAAGGGACAAGAA [EteRNA is fun!]
apparent KD of MS2 coat protein (MS2 coat protein [1]): 50.5 nM
apparent KD of MS2 coat protein (MS2 coat protein [2]): 54.5 nM

AACAGUACAGGAUAUACAUGAGGAUCACCCAUGUGAAAAUUAAGUGGCGAACCACAGUGUAGAAGGGUACUGGA [Mat - Exclusion 3 - Eli mod - D51]
apparent KD of MS2 coat protein (MS2 coat protein [1]): 33.5 nM
apparent KD of MS2 coat protein (MS2 coat protein [2]): 81.8 nM

GAAAACAGAGGAUAUACGAAAUUGACACGAAAAGUGCAGGGACAUGAGGAUCACCCAUGUAGAAGGCUGAAGAA [Meechl MS2... 60% 1]
apparent KD of MS2 coat protein (MS2 coat protein [1]): 48.2 nM
apparent KD of MS2 coat protein (MS2 coat protein [2]): 27.7 nM

AAAAAGUGAGGAUAUACGCUGUGGAGUAGACACAACCAGGCGUAGAAGGCACAUGAGGAUCACCCAUGUCCAAA [EX4 Malc#18]
apparent KD of MS2 coat protein (MS2 coat protein [1]): 44.1 nM
apparent KD of MS2 coat protein (MS2 coat protein [2]): 23.9 nM

AGCUAGUCAGGAUAUACGAAAAUGUCAGAAGCUGUGAAGGGACAUGAGGAUCACCCAUGUAGAAGGGACUAGCA [Diamond 38]
apparent KD of MS2 coat protein (MS2 coat protein [1]): 218 nM
apparent KD of MS2 coat protein (MS2 coat protein [2]): 69.1 nM

AAAAAACAUGAGGAUCACCCAUGUAAGGAUAUCUAAAAUAAAAGAAAAAUAAAGAAAAGGAGAAGGUAUAUGGA [JL wbt mod 24]
apparent KD of MS2 coat protein (MS2 coat protein [1]): 37.3 nM
apparent KD of MS2 coat protein (MS2 coat protein [2]): 27.1 nM

AAAGAUGGAGGAUAUACAUGAGGAUCACCCAUGUGGAAAAAAAAUUGGGAAAAAGAAAGUAGAAGGCCAAAAAA [Ex 3 May 42]
apparent KD of MS2 coat protein (MS2 coat protein [1]): 155 nM
apparent KD of MS2 coat protein (MS2 coat protein [2]): 48.1 nM
